Experiment: soluble on expression in E. coli; label from the status in PepcDB or PDB records

Soluble on expression in E. coli, not soluble:
MPEMPEDMEQEEVNIPNRRVLVTGATGLLGRAVHKEFQQNNWHAVGCGFRRARPKFEQVNLLDSNAVHHIIHDFQPHVIVHCAAERRPDVVENQPDAASQLNVDASGNLAKEAAAVGAFLIYISSDYVFDGTNPPYREEDIPAPLNLYGKTKLDGEKAVLENNLGAAVLRIPILYGEVEKLEESAVTVMFDKVQFSNKSANMDHWQQRFPTHVKDVATVCRQLAEKRMLDPSIKGTFHWSGNEQMTKYEMACAIADAFNLPSSHLRPITDSPVLGAQRPRNTQLDCSKLETLGIGQRTPFRIGIKESLWPFLIDKRWRQTVFH
MGSDKIHHHHHHMKFSEPLVEGRLIRRYKRFLADVQLPDGTEVTAHCPNTGSMLGCQPENARVWLSRSDNPKRKLQYTWELVETEPGVLACVNTVRPNAQARAAIEAGVVQSLAGYAQCRAEVRYGSEKSRIDLLLSGHDHDPDAWVEVKNVTLAEGGEGYFPDAVTERGQKHLRELMAQVQNGDRAVLFFVVNHTGIEQVRPADHIDARYGQLLREACEAGVEVIAYRAALAGEDGDPSGRLELVEEVPVSLEP
MEKPHVVSLIGGFGYREPIFRKVLTTAMLDPGINYTLISGPSLDPSKLGGVPKNVRILNFVEDTYPYIKSSDAVIAPGGHSTIMEALSFGVPILSFPDEGHSEQESNAAVVEEEGYGRMLSYSTPPEVILECIREVIEDEAYRNKVERLQRLSGELEHHHHHH
MGHHHHHHSHPQDNDFLSRKAQDCYFMKLHHCPGNHSWDSTISGSQRAAFCDHKTTPCSSAIINPLSTAGNSERLQPGIAQQWIQSKREDIVNQMTEACLNQSLDALLSRDLIMKEDYELVSTKPTRTSKVRQLLDTTDIQGEEFAKVIVQKLKDNKQMGLQPYPEILVVSRSPSLNLLQNKSM
MDKEVTNIVLKRHDSIVKGAQDDREYRGLELTNGIRVLLVSDPTTDKSAAALDVKVGHLMDPWELPGLAHFCEHMLFLGTAKYPTENEYSKFLTDNAGHRNAVTASDHTNYHFDVKPDQLRGALDRFVQFFLSPQFTESATEREVCAVDSEHSNNLNNDLWRLSQVDRSLSKPGHDYAKFGTGNKKTLLEEARKKGVEPRDALLQFYKKWYSSNIMTCCIIGKESLDVLQSHLKTLEFDTIENKKVERKVWNENPYGPEQLGKRIDRKFFAHLIRHKGPGSLLVELKRLGWVNSLKSDSNTIAAGFGILNVTMDLSTGGLENVDEIIQLMLNYIGMLKSFGPQQWIHDELADLSDVKFRFKDKEQPMKMAINIAASLQYIPIEHILSSRYLLTKYEPERIKELLSTLTPSNMLVRVVSQKFKEQEGNTNEPVYGTEMKVTDISPEKMKKYENALKTSHHALHLPEKNEYIATNFGQKPRESVKNEHPKLISDDGWSRVWFKQDDEYNMPKQETKFALTTPIVSQNPRISLISSLWLWCFCDILSEETYNAALAGLGCQFELSPFGVQKQSTDGREAERHASLTLHVYGYDEKQPLFVKHLTSCMINFKIDRTRFEVLFESLKRTLTNHAFSQPYLLTQHYNQLLIVDKVWSKEQLLAVCDSVTLENVQGFAREMLQAFHMELFVHGNSTEKEAIQLSKELMDILKSAAPNSRPLYRNEHNPRREFQLNNGDEYIYRHLQKTHDAGCVEVTYQIGVQNKYDNAVVGLIDQLIKEPVFDTLRTNEALGYIVWTGCRFNCGAVALNIFVQGPKSVDYVLERIEVFLESVRKEIIEMPQDEFEKKVAGMIARLEEKPKTLSNRFKRFWYQIECRQYDFARREKEVKVLKSIGKDDVIALFDKKIRKNAVERRKLVVLVHGKIDDQETLNRIIKKNVESGKKEKEILNLDQLRQSLPVYDLPNAAIDLKPIGVDPLEQKESATVQ
MGKKDKRSKLEGDDLAEAQQKGSFQLPSSNETAKLDASQWPLLLKNYDKLNVRTNHYTPHVEGVSPLKRDIKNYISSGFFNLDKPSNPSSHEVVSWIKRILRCEKTGHSGTLDPKVSGCLIVCIDRTTRLAKSQQGAGKEYICIFKLHEEVEDDRKVKQALEKLTGALFQRPPLISAVKRQLRIRTVYENKFIEYDPAQQMGIFNCICESGTYVRTICVHLGLILGCGGQMQELRRNRSGICDENENMVTMHDVLDAQYLLDTQKDESYMRHIVRPLEALLTQHKRVVVKDSCINAICYGAKILIPGILRYDDDIEVGKEIVIMSTKGEAICIAIAQMNTSTIASVDHGVVAKSKRVIMERDVYGRKWGLGPVASKKKQMVKDGLLDKFGKPNDTTPKSWAKEYVQTSTKKEVKKEETPDEEEEEAPKKKSKKSKKQESSDSDSD
MGSDKIHHHHHHVNYPKVYTSEQACPINLVGETGQAVQISIHAPSQYICANCERILPDWKRQSFLRVVIVLQQSRYQLVKKTTEVESEKERLREKFMRFGCDLAFNLRDRGYLTDLIDPRTGYPLLSHPGAIPHDDTAVVKALLNYPVIKNQCRVLVHPEWGAAVYPSILISEAPPILIEWVTKGIAAMHGWKEISH
MAHHHHHHMKTFIGHFNNNALFSRNSFTNKSLRARKYTKNILSLKNLIYSSFFLYSTMNKVIGTHSGRFHTDEILATVMLKFLPEYKDAKIIRTRDQTKLDTCDIVVDVGGVYDHENKRYDHHQKEFEGTLDDKHTIRLSSAGLIYKHYGKEVLRKGFSITDEEKINVLYEKLYTSFIESVDALDNGINQYEGQPKYQINTTIQCRVNRFNPTFLEDDVDENERFMEAAKIVKQEFVHFVTYYSDVWYMAKSIVRESILDRFNFHKSGRVIYLQKYCPYTEHLYDLEQELNIQDEILYCIYSDRYNNFRCTAISKKNEPFVLRLPFPASFRGLKDEQLQTVSKIPGLTFVHYSGFTSAGENIESLVKLVEASLKENNIVY
MVKANVQAIDQLDAEQLGSGMVITDRQLSIVAVSEPTPRWLGFAKNELVGRPVGVLFSAEWSAALLDGIAEAVKKDGCWQGEARHVAKSGKAYTSWMNVYRLSGSEGEWLVWHFVEQTAMPPADRPTTSELLGVIYDSAPFAVVPVAADGTVQDWGLSAERLFGRRKEEAVGRPIWSLFRCGSQTWLPFPPKEQRCGEGMVQRRDGTSANVSYTVIPMLQADGYIVLVEDETKQKQKEAERRRQVELAKKIQQNLLTPLIQNEAVTMDAVYIPSDDLSGDIYACYQIDLYRYGVIVIDVMGHGISSALVSMLLRSLLRGLIVRVIDPVSVASELEKHVQTLFPDEANDIRHLFSMIYLVIDTKERKIEYTNAGHPAGLLVFDDGSVHELDKGGLAIGSPFSLPFEKGVIHYDKRARLLLYTDGILEEIDPSILQSIEKIRSCTQMCRHLPDKRFLERLISQGPPLVSPSDDICLLSITVHG
MATIDSMNKDTTRLSDGPDWTFDLLDVYLAEIDRVAKLYRLDTYPHQIEVITSEQMMDAYSSVGMPINYPHWSFGKKFIETERLYKHGQQGLAYEIVINSNPCIAYLMEENTITMQALVMAHACYGHNSFFKNNYLFRSWTDASSIVDYLIFARKYITECEERYGVDEVERLLDSCHALMNYGVDRYKRPQKISLQEEKARQKSREEYLQSQVNMLWRTLPKREEEKTVAEARRYPSEPQENLLYFMEKNAPLLESWQREILRIVRKVSQYFYPQKQTQVMNEGWATFWHYTILNHLYDEGKVTERFMLEFLHSHTNVVFQPPYNSPWYSGINPYALGFAMFQDIKRICQSPTEEDKYWFPDIAGSDWLETLHFAMRDFKDESFISQFLSPKVMRDFRFFTVLDDDRHNYLEISAIHNEEGYREIRNRLSSQYNLSNLEPNIQIWNVDLRGDRSLTLRYIPHNRAPLDRGRKEVLKHVHRLWGFDVMLEQQNEDGSVELLERCPPRMGNL

Soluble on expression in E. coli, soluble:
MSVKIDVIRVEIPEGTNVIIGQSHFIKTVEDLYETLASSSPHLKFGIAFCEASGKRLIRWDGNDEELIKLAQQTALKIGAGHTFVIYIKNGFPINVLNRIKNVEEVVRIFAATANPLQVLVAETDQGRGVIGVVDGYTPLGIETEADIKERKELLRKFGYKR
MSQYNPTTADFEALLMQSFQTNDLNEGSVVKGRVIAIEKDMAIIDAGLKVEGRIPLKEFGAKGKDGSLQIGDEVEVYIERIENAMGEAVLSREKARREESWIRLEEKFNAGARVDGVIFSQVKGGFTVDLDGAVAFLPRSQVDIRPIRDVSPLMHNSQSFEILKMDRRRGNIVVSRRTVLEESRAEQRSEIVQNLEENQIVEGVVKNITDYGAFVDLGGIDGLLHVTDMAWRRVNHPSEILTIGQTIKVQIIRINQDTHRISLGMKQLESDPWESISARYPVGKKITGAVTNITDYGGFVEIEPGIEGLIHVSEMSWTKKNVHPGKILSTSQEVEVVILEIDPSKRRISLGLKQTFENPWVAFANKFPVNSQIEGEVKNKTEFGLFIGLEGDVDGMVHLSDLDWNRPGEQVIDTYNKGDIVKAVVLDVDIEKERISLGIKQLSSDKVGEAAASGELRKGAVVTCEVTAVNDNGIDVKLTDHNLETTIRRTDLARDRDEQRPERFSIGQRVDARITAFDKKTRKLSVSIKALEIAEEKEAVAQYGSTDSGASLGDILGAALKKQEQDLEHHHHHH
GPGSMKVGNRDYDPCVKVSLELESLLQHHFQQRQHSKRILKDRLRKAELEIAYLQQSVSAYSEELRVERLKFDTLQRTMEDSKRNHAAELMEQDKIIRDRMCNVDTQARLLVVKTEECERRAQCLQKQEEELLNREKELRFYQASFEAGIMPAQRQIEAERVRMLRAREKAEELLEEARISALATEERRKKLEALHNLEMQFFALEKEEATQRIQIMRQEIFGLVGLISFRRTHVSAAEGDAAKRIRLLEEELASKKEVFELREKEVYLRYQREEQRMRDERKRIISIKEAMRQDYRLVLEGIRLFGNEYSTEPDQLQVDALKDLEKLLFSALDDHQLEITKKL
MLAGLGEGGRVYIADLAIGPVALRDDGSIEEYELFPRSVDEAVTEALRLEEEGFTLAHEKLGKKLVESGVGSLVVESEDTARHFSKLGLSVKVEPGNNVALSARERLVSLGVELGFFGSEDDALSWLYEVEVEYTRRKLRGAAQKRDMLAAQAIRAIDDIDKTVNLFVARLREWYSIHFPELNDLVREHEDYVKIVSAVGHRDNITVERLVDLGFSEEKARRIAEAAKQSIGADLSEIDIQAVQTLARITSELYQLRRRLTEYIEQVMNEVAPNITALVGPLLGARLISLAGGLDKLARMPASTIQVLGAEKALFRALRTGGKPPKHGIIFQYPDIHRSPKWQRGKIARALAAKLAIAAKVDAFTGRFIGDKLREELRRRIAEIKKIYAKPPKRKREEKPPQPRRARPPRRGRPPRRRRGGRRLEHHHHHH
MIREKALEFHKNNFPGNGKIEVIPKVSLESREELTLAYTPGVAEPCKEIARDPGKVYEYTSKGNLVAVVSDGSRILGLGNIGPLAGLPVMEGKALLFKRFGGVDAFPIMIKEQEPNKFIDIVKAIAPTFGGINLEDIASPKCFYILERLREELDIPVFHDDQQGTAAVVLAGLLNALKVVGKKISEITLALFGAGAAGFATLRILTEAGVKPENVRVVELVNGKPRILTSDLDLEKLFPYRGWLLKKTNGENIEGGPQEALKDADVLISFTRPGPGVIKPQWIEKMNEDAIVFPLANPVPEILPEEAKKAGARIVATGRSDYPNQINNLLGFPGIFRGALDVRARTITDSMIIAAAKAIASIVEEPSEENIIPSPLNPIVYAREARAVAEEAMKEGVARTKVKGEWVEEHTIRLIEFYENVIAPINKKRREYSKAITRA
MSLRVFVCGCVHGSWDIVVDEVNKLVENGTKLDLIIVAGDLEAFITESDLLSYKRPNGTQGFGSFHKIANGEKHLPCKMLVIGGNNESTDIIFQLPFGGWITPDVYFAGRASQIYFGDLLITCTSGVYNVKNYWKKVYEHFPVRKKECYSVNHTRAFSNFQVYGLTQLNIFVTHDWPSGIPKMFRDIIPKKSLVDSDDSNDFGMQDYRKILEKKQPKYWFAAHHHIKFECEPNPGTKFIAVPRVIQDNWYSLQTFDEKPGDFMISGEWINILKKTEEYMKDPSVLKDIDWDEEWTKINSLPSADLPIKVPVMEYNNDYKVQTAKFCETYGIYNPNEGHHHHHH
